30 sequences from the nanobody polyreactivity screen of Harvey et al. (2022) can be followed below.

This data set in a line: yeast display, Sf9 membrane polyspecificity reagent, FACS + sequencing; frameworks hold sequencing errors. The procedure, abridged: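 A synthetic nanobody library was expressed on Saccharomyces cerevisiae BJ5465 by galactose induction for 36–48 hours. The library was stained for 1 hour at 4 °C with 10% biotinylated, detergent-solubilized Sf9 membrane reagent and enriched with streptavidin microbeads before FACS. Low and high (top ~1%) gates were set on anti-HA fluorescence for expression and streptavidin fluorescence for reagent binding, and each polyreactivity label reflects the gate of origin.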
Regarding “QVQLVESGGGLVQAGGSLRLSCAASGRTFRSNAMGWYRQAPGKEREFVAAISGRGGITYYADSVKGRFTISRDNAKNTVYLQMNSLKPEDTAVYYCNADYWQAGDYLYYFVYYGGYDYWGQGTQVTVSS”, the “polyreactivity (PSR sort gate)” value is “low polyreactivity”. In the case of “QVQLVESGGGLVQAGGSLRLSCAASGRTFRSNAMGWYRQAPGKERELVAAITASGGNTYYADSVKGRFTISRDNAKNTVYLQMNSLKPEDTAVYYCAAVSRYNYGTNPYYYWGQGTQVNVSS”, the “polyreactivity (PSR sort gate)” value is on record as “high polyreactivity”. With “QVQLVESGGGLVQAGGSLRLSCAASGRTFRSNAMGWYRQAPGKERELVATISGRGGSTYYADSVKGRFTISRDNAKNTVYLQMNSLKPEDTAVYYCNAYSVRLSGAELNYWGQGTQVTVSS”, the “polyreactivity (PSR sort gate)” value is reported as “high polyreactivity”. With “QVQLVESGGGLVQAGGSLRLSCAASGRTFRSNAMGWYRQAPGKERELVATISRRGVSTYYADSVKGRFTISRDNAKNTVYLLMNSLKPEYTAVYYCTLNVGTTSRWSYDYWGQGNQVTVSS”, the “polyreactivity (PSR sort gate)” value is “high polyreactivity”. As for “QVQLVESGGGLVQAGGSLRLSCAASGRTFRSYAMGWYRQAPGKERELVAAINTNGGSTYYADSVKGRFTISRDNAKNTVYLQMNSLKPEDTAVYYCRAWAQNQFNYWGQGTQVTVSS”, the “polyreactivity (PSR sort gate)” value was “high polyreactivity”. Turning to “QVQLVESGGGLVQAGGSLRLSCAASGRTFRSYAMGWYRQAPGKERELVAAISWTGGSTYYADSVKGRFTISRDNAKNTVYLQMNSLKPEDTAVYYCAVRYRGYGYDWGQGTQVTVSS”, the “polyreactivity (PSR sort gate)” value is listed as “high polyreactivity”. As for “QVQLVESGGGLVQAGGSLRLSCAASGRTFRTNAMGWYRQAPGKEPELVAAISRGGGSTYYADSVKGRFTISRDNAKNTVYLQMNSLKPEDTAVYDCNALRNGIAFGAMDYWGQGTQVNVSS”, the entry is “high polyreactivity”; as for “QVQLVESGGGLVQAGGSLRLSCAASGRTFRTYAMGWYRQAPGKERELVAVITVNSASTYYADSVKGRFTISRDYAKNTVYLQMKSLKPEDTAVYYCADYFIYGYWGQGTQVTVSS”, “low polyreactivity”. Consider “QVQLVESGGGLVQAGGSLRLSCAASGRTFRTYTMGWYRQAPGKEREFVAAITSSGASTYYADSVKGRFTISRDNAKNTVYLQKNSLKPEDTAFYYCAARYGRRLVWVPALLYDYWGQGTQVTVSS”, for which the “polyreactivity (PSR sort gate)” value is “high polyreactivity”.

Consider “QVQLVESGGGLVQAGGSLRLSCAASGRTFRTYTMGWYRQAPGKERELVAAITSTGSTYYADSVKGRFTISRDNAKNTVYLQMNSLKPEDTAVYYCAAVYVAVGLVYEKYDYWGQGTQVTVSS”, for which the “polyreactivity (PSR sort gate)” value is recorded as “high polyreactivity”. Take “QVQLVESGGGLVQAGGSLRLSCAASGRTFRVYAMGWYRQAPGKEREFVAAISYSGGRTYYADSVKGRFTISRDNAKNTVYLQMNSLKPEDTAVYYCAAKTNRGSYSYDYWGQGTQVTVSS”: the “polyreactivity (PSR sort gate)” value is “high polyreactivity”. As to “QVQLVESGGGLVQAGGSLRLSCAASGRTFRVYAMGWYRQAPGKERELVAAISWSDGSTYYADSVKGRFTISRDYAKNTVYLQMNSLKPEDTAVYYCNARVRVPVTLHDYWGQCTQVTVSS”, the “polyreactivity (PSR sort gate)” value is “high polyreactivity”. In the case of “QVQLVESGGGLVQAGGSLRLSCAASGRTFRWYAMGWYRKAPGKEWELVAAISYRGGSTYADSVKGRFTISRDNEKNTVNLQMNSLKPEDTAVYYCAAKYYDYGPYYYWGQGTQETVSS” it was “high polyreactivity”; in that of “QVQLVESGGGLVQAGGSLRLSCAASGRTFRWYAMGWYRQAPGKERELVASITWSGGSTYYADSVKGRFTISRDNAKNSVYLQMNSLKPEDTAVYYCNRVLGVSLYEGNYWGQGTQVTVSS”, “high polyreactivity”.

Consider “QVQLVESGGGLVQAGGSLRLSCAASGRTFRYAMGWYRQSPGKERELVAGITTRGTSTYYADSVKGRFTISRDNAKNTVYLQMNSLKPEDTAVYYCNARPARAVYIHTPTYRYDYWGQGTQVTVSS”, for which the “polyreactivity (PSR sort gate)” value is “high polyreactivity”.

“QVQLVESGGGLVQAGGSLRLSCAASGRTFRYNAMGWYRQAPGKERELVAAINWNGGSTYYADSVKGRFTISRDNAKNTVYLQMNSLKPEDTAVYYCNADFYHRYDWGQGTQVTVSS”: the “polyreactivity (PSR sort gate)” value is listed as “high polyreactivity”. For the sequence “QVQLVESGGGLVQAGGSLRLSCAASGRTFRYNAMGWYRQAPGKERELVAAISRSGGRTYYADSVKGRFTISRDNAKNTVYLQMNSLKPEDTAVYYCNAAPSWSTSFDSWGQGTQVTVSS”, the “polyreactivity (PSR sort gate)” value is recorded as “high polyreactivity”. Regarding “QVQLVESGGGLVQAGGSLRLSCAASGRTFRYNAMGWYRQATGKVRELVAAISGRGSSTYYADSVKGRFTISRDNAKNTVYLQMNSLKPDDTAVYYCAALPASVRRPGWHDYWGQGTQVTVSS”, the “polyreactivity (PSR sort gate)” value is reported as “high polyreactivity”. As for “QVQLVESGGGLVQAGGSLRLSCAASGRTFRYNPMVWYRQAPGKERELVAAITWSGGSTYYADSVKGRFKISRDNAKNTVYLQMNSLKPEDTAVYYCNRRYYAYDWGQGTQVTVSS”, the entry is “high polyreactivity”. In the case of “QVQLVESGGGLVQAGGSLRLSCAASGRTFRYNVMGWYRQAPGKERELVAAIRKRSGSTYYADSVKGRFTISRDNAKNTVYLQMISLKPEDTAVYYCNTEYHYGTASASDYWGQGTQVTVSS” it was “high polyreactivity”; in that of “QVQLVESGGGLVQAGGSLRLSCAASGRTFRYYAIGWYRQAPGKERELVATISKSGGSTYYADSVKGRFTISRDNAKNTVYLQMNSLKPEDTAVYYCAAVGPYRWYDYWGQGTQVTVSS”, “high polyreactivity”; in that of “QVQLVESGGGLVQAGGSLRLSCAASGRTFRYYALGWYRQAHGKERELVPRITRGATTNYADSVKGRFTISRDNAKNTVYLQMNSLKPEDTAVYYCAVTPLYGSDRRGWFSSDYWGQGTHVTVSS”, “high polyreactivity”.

As to “QVQLVESGGGLVQAGGSLRLSCAASGRTFRYYAMGWYRPAPGKERELVAAINWSGGTTYYADSVKGRFTISRDNAKNTVYLQMNSLKPEDTAVYYCAAVYGYPSTSRYDYWGQGTQVTVSS”, the “polyreactivity (PSR sort gate)” value is “high polyreactivity”. As for “QVQLVESGGGLVQAGGSLRLSCAASGRTFRYYAMGWYRQAPGKERELFAAITSTGSTNYADSVKGRFTISRDNAKNTVYLQMNSLKPEDTAVYYCAARVNGKRRRYDYWGQGTQVTVSS”, the entry is “high polyreactivity”; as for “QVQLVESGGGLVQAGGSLRLSCAASGRTFRYYAMGWYRQAPGKERELVAAINRGGSTYYADSVKGRFTISRDNAKNTVYLQMNSLKPEDTAVYYCNVDKYRIVGFHSPYDYWGQGTQVTVSS”, “high polyreactivity”. Turning to “QVQLVESGGGLVQAGGSLRLSCAASGRTFRYYAMGWYRQAPGKERELVAAITSGGSTNYADSVKGRFTISRDNAKNTVYLQMNSLKPEDTAVYYCAAYWRSRNRFFWGQGTQVTVSS”, the “polyreactivity (PSR sort gate)” value is listed as “high polyreactivity”. “QVQLVESGGGLVQAGGSLRLSCAASGRTFRYYAMGWYRQAPGKERELVADISWSGGRTTYADSVKGRFTISRDNAKNTVYLQMNSLKPEDTAVYYCAKVLYYPSHVSWGQGTQVTVSS”: the “polyreactivity (PSR sort gate)” value is listed as “high polyreactivity”. “QVQLVESGGGLVQAGGSLRLSCAASGRTFRYYAMVWYRQAPGKEREWVASISSSGARTYYADSVKGRFTISRDNAKNTVYLRMNSQKPEDSAVYYCAASQRSGHPSYDYWGQGTQVTVSS”: the “polyreactivity (PSR sort gate)” value is reported as “high polyreactivity”. In the case of “QVQLVESGGGLVQAGGSLRLSCAASGRTFRYYTKGWYRQAPGKERELVAAITYSGGSTYYADSVKGRFTISRDNAMNTVYLQMNSLKPVDTAVYYCAAKASGNYYYYWGQGTQVTVSS”, the “polyreactivity (PSR sort gate)” value is “high polyreactivity”. For “QVQLVESGGGLVQAGGSLRLSCAASGRTFSAYAMGWYRQAPGKEREFVAAITFNTGSTYYADSVKGRFTISRDNAKNTVYLQMNSLKPEDTAVYYCAAALVGSVGYKGFDGFDYWGQGTQVTVSS”, the “polyreactivity (PSR sort gate)” value is recorded as “low polyreactivity”.
